# Test results as given in US20060263802A1 (CRUCELL HOLLAND B V, published 2006).
# B1: human monoclonal antibody CRJB (antibody, V domains shown)
# VH: QITLKETGPTLVKPTQTLTLTCTFSGFSLSTSGVGVGWIRQPPGKALEWVTLIYWDDDKRYSPSLENRVTIRKDTSKNQVALTMTNMDPLDTGTYYCAHRQHISSFPWFDSWGQGTLVTVSS
# VL: SYVLTQPPSVSVAPGKTARINCGGNNIEYRSVHWYQQKSGQAPVAVIYDNSDRPSGIPERFSGSKSGNTATLTISRVEAGDEADYYCQVWDISSDVVFGGGTKLTVLG
# Legend:
# Assay in all cases: PEPSCAN ELISA, looped 15-mer, 10 ug/ml
# [1] = target: looped peptide … (rabies virus strain ERA)
# [2] = target: looped peptide … (rabies virus strain ERA); remark: listed apart in the source
# [3] = target: looped peptide … (rabies virus strain ERA); remark: listed apart in the source
# [4] = target: looped peptide … (rabies virus strain ERA); remark: listed apart in the source
# [5] = target: looped peptide … (rabies virus strain ERA); remark: listed apart in the source
# [6] = target: looped peptide … (rabies virus strain ERA); remark: listed apart in the source
# [7] = target: looped peptide … (rabies virus strain ERA); remark: listed apart in the source
# [8] = target: looped peptide … (rabies virus strain ERA); remark: listed apart in the source
# [9] = target: looped peptide … (rabies virus strain ERA); remark: listed apart in the source
# [10] = target: looped peptide … (rabies virus strain ERA); remark: listed apart in the source
# [11] = target: looped peptide … (rabies virus strain ERA); remark: listed apart in the source
# [12] = target: looped peptide … (rabies virus strain ERA); remark: listed apart in the source
# [13] = target: looped peptide … (rabies virus strain ERA); remark: listed apart in the source
# [14] = target: looped peptide … (rabies virus strain ERA); remark: listed apart in the source
# [15] = target: looped peptide … (rabies virus strain ERA); remark: listed apart in the source
# [16] = target: looped peptide … (rabies virus strain ERA); remark: listed apart in the source
# [17] = target: looped peptide … (rabies virus strain ERA); remark: listed apart in the source
# [18] = target: looped peptide … (rabies virus strain ERA); remark: listed apart in the source
# [19] = target: looped peptide … (rabies virus strain ERA); remark: listed apart in the source
# [20] = target: looped peptide … (rabies virus strain ERA); remark: listed apart in the source
# [21] = target: looped peptide … (rabies virus strain ERA); remark: listed apart in the source
# [22] = target: looped peptide … (rabies virus strain ERA); remark: listed apart in the source
# [23] = target: looped peptide … (rabies virus strain ERA); remark: listed apart in the source
# [24] = target: looped peptide … (rabies virus strain ERA); remark: listed apart in the source
# [25] = target: looped peptide … (rabies virus strain ERA); remark: listed apart in the source
# [26] = target: looped peptide … (rabies virus strain ERA); remark: listed apart in the source
# [27] = target: looped peptide … (rabies virus strain ERA); remark: listed apart in the source
# [28] = target: looped peptide … (rabies virus strain ERA); remark: listed apart in the source
# [29] = target: looped peptide … (rabies virus strain ERA); remark: listed apart in the source
# [30] = target: looped peptide … (rabies virus strain ERA); remark: listed apart in the source
# [31] = target: looped peptide … (rabies virus strain ERA); remark: listed apart in the source
# [32] = target: looped peptide … (rabies virus strain ERA); remark: listed apart in the source
# [33] = target: looped peptide … (rabies virus strain ERA); remark: listed apart in the source
# [34] = target: looped peptide … (rabies virus strain ERA); remark: listed apart in the source
# [35] = target: looped peptide … (rabies virus strain ERA); remark: listed apart in the source
# [36] = target: looped peptide … (rabies virus strain ERA); remark: listed apart in the source
# [37] = target: looped peptide … (rabies virus strain ERA); remark: listed apart in the source
# [38] = target: looped peptide … (rabies virus strain ERA); remark: listed apart in the source
# [39] = target: looped peptide … (rabies virus strain ERA); remark: listed apart in the source
# [40] = target: looped peptide … (rabies virus strain ERA); remark: listed apart in the source
# [41] = target: looped peptide … (rabies virus strain ERA); remark: listed apart in the source
# [42] = target: looped peptide … (rabies virus strain ERA); remark: listed apart in the source
# [43] = target: looped peptide … (rabies virus strain ERA); remark: listed apart in the source
# [44] = target: looped peptide … (rabies virus strain ERA); remark: listed apart in the source
# [45] = target: looped peptide … (rabies virus strain ERA); remark: listed apart in the source
# [46] = target: looped peptide … (rabies virus strain ERA); remark: listed apart in the source
# [47] = target: looped peptide … (rabies virus strain ERA); remark: listed apart in the source
# [48] = target: looped peptide … (rabies virus strain ERA); remark: listed apart in the source
# [49] = target: looped peptide … (rabies virus strain ERA); remark: listed apart in the source
# [50] = target: looped peptide … (rabies virus strain ERA); remark: listed apart in the source
# [51] = target: looped peptide … (rabies virus strain ERA); remark: listed apart in the source
# [52] = target: looped peptide … (rabies virus strain ERA); remark: listed apart in the source
# [53] = target: looped peptide … (rabies virus strain ERA); remark: listed apart in the source
# [54] = target: looped peptide … (rabies virus strain ERA); remark: listed apart in the source
# [55] = target: looped peptide … (rabies virus strain ERA); remark: listed apart in the source
# [56] = target: looped peptide … (rabies virus strain ERA); remark: listed apart in the source
# [57] = target: looped peptide … (rabies virus strain ERA); remark: listed apart in the source
# [58] = target: looped peptide … (rabies virus strain ERA); remark: listed apart in the source
# [59] = target: looped peptide … (rabies virus strain ERA); remark: listed apart in the source
# [60] = target: looped peptide … (rabies virus strain ERA); remark: listed apart in the source
# [61] = target: looped peptide … (rabies virus strain ERA); remark: listed apart in the source
# [62] = target: looped peptide … (rabies virus strain ERA); remark: listed apart in the source
# [63] = target: looped peptide … (rabies virus strain ERA); remark: listed apart in the source
# [64] = target: looped peptide … (rabies virus strain ERA); remark: listed apart in the source
# [65] = target: looped peptide … (rabies virus strain ERA); remark: listed apart in the source
# [66] = target: looped peptide … (rabies virus strain ERA); remark: listed apart in the source
# [67] = target: looped peptide … (rabies virus strain ERA); remark: listed apart in the source
# [68] = target: looped peptide … (rabies virus strain ERA); remark: listed apart in the source
binder,measurement,setting,value
B1,OD value,[1],33
same,OD value,[2],70
same,OD value,[3],96
same,OD value,[4],106
same,OD value,[5],90
same,OD value,[6],82
same,OD value,[7],104
same,OD value,[8],94
same,OD value,[9],82
same,OD value,[10],5
same,OD value,[11],56
same,OD value,[12],90
same,OD value,[13],86
same,OD value,[14],72
same,OD value,[15],98
same,OD value,[16],66
same,OD value,[17],85
same,OD value,[18],87
same,OD value,[19],25
same,OD value,[20],89
same,OD value,[21],86
same,OD value,[22],82
same,OD value,[23],58
same,OD value,[24],79
same,OD value,[25],123
same,OD value,[26],73
same,OD value,[27],96
same,OD value,[28],74
same,OD value,[29],111
same,OD value,[30],58
same,OD value,[31],66
same,OD value,[32],72
same,OD value,[33],61
same,OD value,[34],89
same,OD value,[35],106
same,OD value,[36],83
same,OD value,[37],48
same,OD value,[38],2
same,OD value,[39],83
same,OD value,[40],74
same,OD value,[41],77
same,OD value,[42],8
same,OD value,[43],83
same,OD value,[44],85
same,OD value,[45],94
same,OD value,[46],89
same,OD value,[47],77
same,OD value,[48],73
same,OD value,[49],79
same,OD value,[50],78
same,OD value,[51],79
same,OD value,[52],97
same,OD value,[53],84
same,OD value,[54],90
same,OD value,[55],71
same,OD value,[56],106
same,OD value,[57],79
same,OD value,[58],93
same,OD value,[59],112
same,OD value,[60],127
same,OD value,[61],99
same,OD value,[62],94
same,OD value,[63],92
same,OD value,[64],89
same,OD value,[65],105
same,OD value,[66],71
same,OD value,[67],42
same,OD value,[68],58
